Patent US20210221899A1 (published 2021)

Experiments:
Assay in all cases: SPR (Biacore T200), 100 nM mAb on NGF chip, similarity to parent mAb
human NGF = biological target: T1, human NGF (human, UniProt P01138 122-241)
T1 construct: also called human Nerve Growth Factor; hN
T1 chain: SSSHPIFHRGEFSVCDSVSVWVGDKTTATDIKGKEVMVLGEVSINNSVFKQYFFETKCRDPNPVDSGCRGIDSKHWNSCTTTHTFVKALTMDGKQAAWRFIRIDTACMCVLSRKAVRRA
Method in brief: (§1)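 CDR alanine-scan mutants of the anti-NGF mAb were each run at 100 nM over an NGF-coated Biacore T200 chip. A threshold band was set from the mean response units of four parent-mAb replicates ±3 SD, covering both on- and off-rate phases. The score is the percentage of each mutant's data points falling inside that band.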

canine NGF = biological target: T2, canine NGF (canine, UniProt Q29074 110-229 (pig entry), limits assumed)
T2 construct: The protein was secreted from CHO cells and purified; also called cNGF; canine β-NGF
T2 chain: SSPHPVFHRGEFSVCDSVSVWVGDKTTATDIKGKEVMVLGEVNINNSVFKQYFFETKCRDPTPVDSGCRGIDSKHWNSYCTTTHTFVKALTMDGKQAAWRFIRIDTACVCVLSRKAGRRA
Method in brief: as §1

rat NGF = biological target: T3, rat NGF (rat, UniProt P25427 122-241)
T3 construct: also called rN
T3 sequence (P25427 122-241 limits assumed): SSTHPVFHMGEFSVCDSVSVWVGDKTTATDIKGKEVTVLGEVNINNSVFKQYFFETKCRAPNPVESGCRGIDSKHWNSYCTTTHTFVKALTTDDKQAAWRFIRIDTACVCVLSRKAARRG
Method in brief: as §1

B1: can48L2VL_G92A (antibody, V domains shown)
VH: EVQLVESGGDLVKPGGSLRLSCVASGFTFSTYGINWVRQAPGKGLQWVAYISSGGSSTYYADPVKGRFTISRDDAKNMLYLQMNSLRAEDTAIYYCAGSRYTYAYGGGYEFHFWGQGTLVTVSS
VL: QAVLNQPASVSGALGQKVTISCSGSTMDIDIFGVSWYQQLPGKAPKLLVDSDGDRPSGIPDRFSGSRSGNSGTLTITGLQAEDEADYHCQSADSTLGALAIFGGGTHVTVL
notes: CDR scanning mutant of ZTS-842 (48L2)
Percent Similarity Score (KD on hN) (human NGF): 99.3% | Percent Similarity Score (KD on cN) (canine NGF): 93.6% | Percent Similarity Score (KD on rN) (rat NGF): 97%

B2: can48L2VL_T26A (antibody, V domains shown)
VH: EVQLVESGGDLVKPGGSLRLSCVASGFTFSTYGINWVRQAPGKGLQWVAYISSGGSSTYYADPVKGRFTISRDDAKNMLYLQMNSLRAEDTAIYYCAGSRYTYAYGGGYEFHFWGQGTLVTVSS
VL: QAVLNQPASVSGALGQKVTISCSGSAMDIDIFGVSWYQQLPGKAPKLLVDSDGDRPSGIPDRFSGSRSGNSGTLTITGLQAEDEADYHCQSGDSTLGALAIFGGGTHVTVL
notes: as for B1
Percent Similarity Score (KD on hN) (human NGF): 99.8% | Percent Similarity Score (KD on cN) (canine NGF): 97.3% | Percent Similarity Score (KD on rN) (rat NGF): 98%

B3: can48L2VL_I31A (antibody, V domains shown)
VH: EVQLVESGGDLVKPGGSLRLSCVASGFTFSTYGINWVRQAPGKGLQWVAYISSGGSSTYYADPVKGRFTISRDDAKNMLYLQMNSLRAEDTAIYYCAGSRYTYAYGGGYEFHFWGQGTLVTVSS
VL: QAVLNQPASVSGALGQKVTISCSGSTMDIDAFGVSWYQQLPGKAPKLLVDSDGDRPSGIPDRFSGSRSGNSGTLTITGLQAEDEADYHCQSGDSTLGALAIFGGGTHVTVL
notes: as for B1
Percent Similarity Score (KD on hN) (human NGF): 86.2% | Percent Similarity Score (KD on cN) (canine NGF): 32.9% | Percent Similarity Score (KD on rN) (rat NGF): 39.9%

B4: can48L2VL_I101A (antibody, V domains shown)
VH: EVQLVESGGDLVKPGGSLRLSCVASGFTFSTYGINWVRQAPGKGLQWVAYISSGGSSTYYADPVKGRFTISRDDAKNMLYLQMNSLRAEDTAIYYCAGSRYTYAYGGGYEFHFWGQGTLVTVSS
VL: QAVLNQPASVSGALGQKVTISCSGSTMDIDIFGVSWYQQLPGKAPKLLVDSDGDRPSGIPDRFSGSRSGNSGTLTITGLQAEDEADYHCQSGDSTLGALAAFGGGTHVTVL
notes: as for B1
Percent Similarity Score (KD on hN) (human NGF): 100% | Percent Similarity Score (KD on cN) (canine NGF): 97.3% | Percent Similarity Score (KD on rN) (rat NGF): 99.6%

B5: can48L2VL_S51A (antibody, V domains shown)
VH: EVQLVESGGDLVKPGGSLRLSCVASGFTFSTYGINWVRQAPGKGLQWVAYISSGGSSTYYADPVKGRFTISRDDAKNMLYLQMNSLRAEDTAIYYCAGSRYTYAYGGGYEFHFWGQGTLVTVSS
VL: QAVLNQPASVSGALGQKVTISCSGSTMDIDIFGVSWYQQLPGKAPKLLVDADGDRPSGIPDRFSGSRSGNSGTLTITGLQAEDEADYHCQSGDSTLGALAIFGGGTHVTVL
notes: as for B1
Percent Similarity Score (KD on hN) (human NGF): 100% | Percent Similarity Score (KD on cN) (canine NGF): 100% | Percent Similarity Score (KD on rN) (rat NGF): 100%

B6: can48L2VL_I29A (antibody, V domains shown)
VH: EVQLVESGGDLVKPGGSLRLSCVASGFTFSTYGINWVRQAPGKGLQWVAYISSGGSSTYYADPVKGRFTISRDDAKNMLYLQMNSLRAEDTAIYYCAGSRYTYAYGGGYEFHFWGQGTLVTVSS
VL: QAVLNQPASVSGALGQKVTISCSGSTMDADIFGVSWYQQLPGKAPKLLVDSDGDRPSGIPDRFSGSRSGNSGTLTITGLQAEDEADYHCQSGDSTLGALAIFGGGTHVTVL
notes: as for B1
Percent Similarity Score (KD on hN) (human NGF): 97.8% | Percent Similarity Score (KD on cN) (canine NGF): 47% | Percent Similarity Score (KD on rN) (rat NGF): 57.2%

B7: can48L2VL_L96A (antibody, V domains shown)
VH: EVQLVESGGDLVKPGGSLRLSCVASGFTFSTYGINWVRQAPGKGLQWVAYISSGGSSTYYADPVKGRFTISRDDAKNMLYLQMNSLRAEDTAIYYCAGSRYTYAYGGGYEFHFWGQGTLVTVSS
VL: QAVLNQPASVSGALGQKVTISCSGSTMDIDIFGVSWYQQLPGKAPKLLVDSDGDRPSGIPDRFSGSRSGNSGTLTITGLQAEDEADYHCQSGDSTAGALAIFGGGTHVTVL
notes: as for B1
Percent Similarity Score (KD on hN) (human NGF): 99.9% | Percent Similarity Score (KD on cN) (canine NGF): 90% | Percent Similarity Score (KD on rN) (rat NGF): 93.2%

B8: can48L2VL_T95A (antibody, V domains shown)
VH: EVQLVESGGDLVKPGGSLRLSCVASGFTFSTYGINWVRQAPGKGLQWVAYISSGGSSTYYADPVKGRFTISRDDAKNMLYLQMNSLRAEDTAIYYCAGSRYTYAYGGGYEFHFWGQGTLVTVSS
VL: QAVLNQPASVSGALGQKVTISCSGSTMDIDIFGVSWYQQLPGKAPKLLVDSDGDRPSGIPDRFSGSRSGNSGTLTITGLQAEDEADYHCQSGDSALGALAIFGGGTHVTVL
notes: as for B1
Percent Similarity Score (KD on hN) (human NGF): 99.6% | Percent Similarity Score (KD on cN) (canine NGF): 94.9% | Percent Similarity Score (KD on rN) (rat NGF): 99.4%

B9: can48L2VL_Q90A (antibody, V domains shown)
VH: EVQLVESGGDLVKPGGSLRLSCVASGFTFSTYGINWVRQAPGKGLQWVAYISSGGSSTYYADPVKGRFTISRDDAKNMLYLQMNSLRAEDTAIYYCAGSRYTYAYGGGYEFHFWGQGTLVTVSS
VL: QAVLNQPASVSGALGQKVTISCSGSTMDIDIFGVSWYQQLPGKAPKLLVDSDGDRPSGIPDRFSGSRSGNSGTLTITGLQAEDEADYHCASGDSTLGALAIFGGGTHVTVL
notes: as for B1
Percent Similarity Score (KD on hN) (human NGF): 99.9% | Percent Similarity Score (KD on cN) (canine NGF): 94.4% | Percent Similarity Score (KD on rN) (rat NGF): 98.7%

B10: can48L2VL_S94A (antibody, V domains shown)
VH: EVQLVESGGDLVKPGGSLRLSCVASGFTFSTYGINWVRQAPGKGLQWVAYISSGGSSTYYADPVKGRFTISRDDAKNMLYLQMNSLRAEDTAIYYCAGSRYTYAYGGGYEFHFWGQGTLVTVSS
VL: QAVLNQPASVSGALGQKVTISCSGSTMDIDIFGVSWYQQLPGKAPKLLVDSDGDRPSGIPDRFSGSRSGNSGTLTITGLQAEDEADYHCQSGDATLGALAIFGGGTHVTVL
notes: as for B1
Percent Similarity Score (KD on hN) (human NGF): 100% | Percent Similarity Score (KD on cN) (canine NGF): 97.8% | Percent Similarity Score (KD on rN) (rat NGF): 99.3%

B11: can48L2VL_L99A (antibody, V domains shown)
VH: EVQLVESGGDLVKPGGSLRLSCVASGFTFSTYGINWVRQAPGKGLQWVAYISSGGSSTYYADPVKGRFTISRDDAKNMLYLQMNSLRAEDTAIYYCAGSRYTYAYGGGYEFHFWGQGTLVTVSS
VL: QAVLNQPASVSGALGQKVTISCSGSTMDIDIFGVSWYQQLPGKAPKLLVDSDGDRPSGIPDRFSGSRSGNSGTLTITGLQAEDEADYHCQSGDSTLGAAAIFGGGTHVTVL
notes: as for B1
Percent Similarity Score (KD on hN) (human NGF): 99.8% | Percent Similarity Score (KD on cN) (canine NGF): 96.8% | Percent Similarity Score (KD on rN) (rat NGF): 98.4%

B12: can48L2VL_G97A (antibody, V domains shown)
VH: EVQLVESGGDLVKPGGSLRLSCVASGFTFSTYGINWVRQAPGKGLQWVAYISSGGSSTYYADPVKGRFTISRDDAKNMLYLQMNSLRAEDTAIYYCAGSRYTYAYGGGYEFHFWGQGTLVTVSS
VL: QAVLNQPASVSGALGQKVTISCSGSTMDIDIFGVSWYQQLPGKAPKLLVDSDGDRPSGIPDRFSGSRSGNSGTLTITGLQAEDEADYHCQSGDSTLAALAIFGGGTHVTVL
notes: as for B1
Percent Similarity Score (KD on hN) (human NGF): 100% | Percent Similarity Score (KD on cN) (canine NGF): 92.4% | Percent Similarity Score (KD on rN) (rat NGF): 99.6%

B13: can48L2VL_S91A (antibody, V domains shown)
VH: EVQLVESGGDLVKPGGSLRLSCVASGFTFSTYGINWVRQAPGKGLQWVAYISSGGSSTYYADPVKGRFTISRDDAKNMLYLQMNSLRAEDTAIYYCAGSRYTYAYGGGYEFHFWGQGTLVTVSS
VL: QAVLNQPASVSGALGQKVTISCSGSTMDIDIFGVSWYQQLPGKAPKLLVDSDGDRPSGIPDRFSGSRSGNSGTLTITGLQAEDEADYHCQAGDSTLGALAIFGGGTHVTVL
notes: as for B1
Percent Similarity Score (KD on hN) (human NGF): 97.5% | Percent Similarity Score (KD on cN) (canine NGF): 59.6% | Percent Similarity Score (KD on rN) (rat NGF): 76.7%

B14: can48L2VL_M27A (antibody, V domains shown)
VH: EVQLVESGGDLVKPGGSLRLSCVASGFTFSTYGINWVRQAPGKGLQWVAYISSGGSSTYYADPVKGRFTISRDDAKNMLYLQMNSLRAEDTAIYYCAGSRYTYAYGGGYEFHFWGQGTLVTVSS
VL: QAVLNQPASVSGALGQKVTISCSGSTADIDIFGVSWYQQLPGKAPKLLVDSDGDRPSGIPDRFSGSRSGNSGTLTITGLQAEDEADYHCQSGDSTLGALAIFGGGTHVTVL
notes: as for B1
Percent Similarity Score (KD on hN) (human NGF): 72.1% | Percent Similarity Score (KD on cN) (canine NGF): 28% | Percent Similarity Score (KD on rN) (rat NGF): 37.9%

B15: can9L12VH_I50A (antibody, V domains shown)
VH: EVQLVESGGDLVKPGGSLRLSCVASGFTFSSHGMHWVRQSPGKGLQWVAVANSGGSSTYYTDAVKGRFTISRDNAKNTVYLQMNSLRAEDTAMYYCAKESVGGWEQLVGPHFDYWGQGTLVIVSS
VL: QSVLTQPTSVSGSLGQRVTISCSGSTNNIGILGASWYQLFPGKAPKLLVYGNGNRPSGVPDRFSGADSGDSVTLTITGLQAEDEADYYCQSFDTTLGAHVFGGGTHLTVL
Percent Similarity Score (KD on hN) (human NGF): 96.6% | Percent Similarity Score (KD on cN) (canine NGF): 100% | Percent Similarity Score (KD on rN) (rat NGF): 92%

B16: can9L12VH_D113A (antibody, V domains shown)
VH: EVQLVESGGDLVKPGGSLRLSCVASGFTFSSHGMHWVRQSPGKGLQWVAVINSGGSSTYYTDAVKGRFTISRDNAKNTVYLQMNSLRAEDTAMYYCAKESVGGWEQLVGPHFAYWGQGTLVIVSS
VL: QSVLTQPTSVSGSLGQRVTISCSGSTNNIGILGASWYQLFPGKAPKLLVYGNGNRPSGVPDRFSGADSGDSVTLTITGLQAEDEADYYCQSFDTTLGAHVFGGGTHLTVL
Percent Similarity Score (KD on hN) (human NGF): 100% | Percent Similarity Score (KD on cN) (canine NGF): 100% | Percent Similarity Score (KD on rN) (rat NGF): 100%
